{"source": "patent US9717715B2", "about": "“Method of combination therapy using an anti-C-Met antibody” (Samsung Electronics Co., Ltd., priority 2013, dated 2017)", "key": {"[1]": {"system": "Akt phosphorylation in Caki-1 cells", "assay": "Akt phosphorylation (phospho-AKT1 Ser473 sandwich ELISA)", "format": "cell-based", "conditions": "5 ug/ml, FIG. 8B", "text": "Cellular processes regulated by Akt include cell proliferation, cell survival, cell size control, and response to nutrient availability, intermediary metabolism, angiogenesis, and tissue invasion. All these processes represent characteristics of cancer and many oncoproteins and tumor suppressors intersect in the Akt pathway, finely regulating cellular functions at the interface of signal transduction and classical metabolic regulation. Thus, as the content of phosphorylated Akt that is an active form increases, the activity of cancer cells increases. Here, the degree of inhibiting Akt phosphorylation by the 4 types of antibodies having improved affinities was evaluated.\nTo compare agonism of the 4 types of antibodies having improved affinities, as prepared in Example 5, Caki-1 cells (Korean Cell Line Bank) were used to confirm the degree of Akt phosphorylation. Mouse IgG was used as a negative control, and antibody 5D5 (a known agonist) was used as a positive control.\n2×10^5 cells/ml of Caki-1 cells were introduced to a 96-well plate, and after 24 hours, each of 5 ug/ml of the antibodies was treated in serum free medium for 30 minutes. Lysis of the cells treated with the antibodies was performed and the degree of Akt phosphorylation was measured using a PathScan phospho-AKT1 (Ser473) chemiluminescent Sandwich ELISA kit (Cell Signaling, cat. no #7134S). […]"}, "c-Met in MKN45 cells": {"target": "T1, c-Met in MKN45 cells (Homo sapiens, UniProt P08581)", "T1 construct": "MKN45 gastric cancer cells on which c-Met is expressed; endogenous in cells; host or cells: MKN45 gastric cancer cells (JCRB)", "T1 sequence (P08581 25-1390)": "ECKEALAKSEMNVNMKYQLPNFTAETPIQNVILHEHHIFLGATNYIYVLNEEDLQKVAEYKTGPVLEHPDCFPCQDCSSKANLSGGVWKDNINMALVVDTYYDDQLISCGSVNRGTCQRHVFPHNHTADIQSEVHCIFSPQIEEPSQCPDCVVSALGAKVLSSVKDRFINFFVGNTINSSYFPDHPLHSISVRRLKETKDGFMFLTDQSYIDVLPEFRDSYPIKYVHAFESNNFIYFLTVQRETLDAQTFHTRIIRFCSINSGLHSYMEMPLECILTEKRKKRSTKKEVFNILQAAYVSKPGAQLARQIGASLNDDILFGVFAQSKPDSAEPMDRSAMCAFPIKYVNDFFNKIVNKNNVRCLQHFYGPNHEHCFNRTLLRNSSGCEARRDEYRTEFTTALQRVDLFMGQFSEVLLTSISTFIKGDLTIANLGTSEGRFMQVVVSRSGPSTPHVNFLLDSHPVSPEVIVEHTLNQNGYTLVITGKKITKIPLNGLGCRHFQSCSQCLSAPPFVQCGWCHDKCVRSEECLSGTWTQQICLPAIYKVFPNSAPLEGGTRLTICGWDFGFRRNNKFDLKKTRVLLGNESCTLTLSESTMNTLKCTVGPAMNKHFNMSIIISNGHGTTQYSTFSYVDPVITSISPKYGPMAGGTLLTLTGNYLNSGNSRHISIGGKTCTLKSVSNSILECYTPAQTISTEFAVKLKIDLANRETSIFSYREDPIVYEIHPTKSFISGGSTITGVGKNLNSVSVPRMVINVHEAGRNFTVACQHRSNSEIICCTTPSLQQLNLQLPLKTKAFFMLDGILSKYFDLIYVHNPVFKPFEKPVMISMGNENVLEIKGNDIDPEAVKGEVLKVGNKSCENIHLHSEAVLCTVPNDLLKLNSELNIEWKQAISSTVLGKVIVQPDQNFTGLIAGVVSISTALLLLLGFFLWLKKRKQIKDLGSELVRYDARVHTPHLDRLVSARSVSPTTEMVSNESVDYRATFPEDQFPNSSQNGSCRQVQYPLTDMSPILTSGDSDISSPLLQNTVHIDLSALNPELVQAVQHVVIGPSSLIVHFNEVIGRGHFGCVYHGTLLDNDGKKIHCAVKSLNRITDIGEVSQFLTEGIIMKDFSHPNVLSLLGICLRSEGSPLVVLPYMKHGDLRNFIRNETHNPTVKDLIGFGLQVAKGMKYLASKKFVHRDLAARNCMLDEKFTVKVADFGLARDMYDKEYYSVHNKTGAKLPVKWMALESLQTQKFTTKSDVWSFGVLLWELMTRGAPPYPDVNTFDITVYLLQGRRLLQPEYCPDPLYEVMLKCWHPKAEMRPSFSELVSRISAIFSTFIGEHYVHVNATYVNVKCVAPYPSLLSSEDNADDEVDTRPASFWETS", "assay": "Degree of degradation of c-Met (total c-Met ELISA)", "format": "cell-based", "conditions": "5 ug/ml, 24 hours, FIG. 9B", "experimental": "In order to identify anti-cancer effects of the 4 types of antibodies having improved affinities, as prepared in Example 5, the degree of degradation of c-Met bound to the antibodies was evaluated. A relative total amount of c-Met was obtained by measuring the change in the total amount of c-Met after the antibody binds to c-Met to degrade c-Met via internalization, and thus the efficacy of the antibody was evaluated.\n(§1) MKN45 cells (2×10^5 cells/ml) and each of the antibodies (5 ug/ml) were simultaneously introduced to a 96-well plate and incubated for 24 hours. Then, lysis of the cells treated with antibodies was performed and the change in the total amount of c-Met was measured using a Human total HGF R/c-Met ELISA KIT (R&D systems, DYC358) and analyzed.\nas §1, with “In order to identify anti-cancer effects of the 3 types of antibodies having improved affinities, as prepared in Example 11, the degree of degradation of c-Met bound to the antibody was evaluated. MKN45” for “MKN45”, “and a” for “and the”, “change of” for “change in”"}}, "data": [{"molecule": "L3-11Y: light chain SEQ ID NO: 73 (serine 27e replaced with tryptophan) and the heavy chain of huAbF46-H4-A1 (IgG2 Fc) (antibody) heavy: EVQLVESGGGLVQPGGSLRLSCAASGFTFTDYYMSWVRQAPGKGLEWLGFIRNKANGYTTEYSASVKGRFTISRDNSKNTLYLQMNSLRAEDTAVYYCARDNWFAYWGQGTLVTVSSASTKGPSVFPLAPCSRSTSESTAALGCLVKDYFPEPVTVSWNSGALTSGVHTFPAVLQSSGLYSLSSVVTVPSSNFGTQTYTCNVDHKPSNTKVDKTVERKCCVECPPCPAPPVAGPSVFLFPPKPKDTLMISRTPEVTCVVVDVSHEDPEVQFNWYVDGVEVHNAKTKPREEQFNSTFRVVSVLTVVHQDWLNGKEYKCKVSNKGLPAPIEKTISKTKGQPREPQVYTLPPSREEMTKNQVSLTCLVKGFYPSDIAVEWESNGQPENNYKTTPPMLDSDGSFFLYSKLTVDKSRWQQGNVFSCSVMHEALHNHYTQKSLSLSPGK light: DIQMTQSPSSLSASVGDRVTITCKSSQSLLAWGNQNNYLAWYQQKPGKAPKMLIIWASTRVSGVPSRFSGSGSGTDFTLTISSLQPEDFATYYCQQSYSRPYTFGQGTKVEIKRTVAAPSVFIFPPSDEQLKSGTASVVCLLNNFYPREAKVQWKVDNALQSGNSQESVTEQDSKDSTYSLSSTLTLSKADYEKHKVYACEVTHQGLSSPVTKSFNRGEC", "values": [{"measurement": "activity of Akt phosphorylation inhibition compared to huAbF46-H4-A1 (IgG2 Fc)", "setting": "[1]", "result": "equal or higher activity of Akt phosphorylation inhibition"}, {"measurement": "activity of c-Met degradation compared to huAbF46-H4-A1 (IgG2 Fc)", "setting": "c-Met in MKN45 cells", "result": "approximately equal activity of c-Met degradation"}]}]}
